Here are results for 60 molecules from US20180291082A1 (IMMATICS BIOTECHNOLOGIES, published 2018).

Where only a bound is given, the exact number is not on record here.

The first experiment has as its target T1, HLA-A*03:01 (human).
T1 construct: Peptide-receptive MHC monomer made by UV cleavage of a UV-sensitive peptide
The experiment is described as follows: UV-ligand exchange, anti-b2m ELISA; exchange yield grade (+ >10%, ++ >20%, +++ >50, ++++ >75%). The source says:
(§1) Candidate peptides for T cell based therapies according to the present invention were further tested for their MHC binding capacity (affinity). The individual peptide-MHC complexes were produced by UV-ligand exchange, where a UV-sensitive peptide is cleaved upon UV-irradiation, and exchanged with the peptide of interest as analyzed. Only peptide candidates that can effectively bind and stabilize the peptide-receptive MHC molecules prevent dissociation of the MHC complexes. To determine the yield of the exchange reaction, an ELISA was performed based on the detection of the light chain (β2m) of stabilized MHC complexes. The assay was performed as generally described in Rodenko et al. (Rodenko et al., 2006).
(§2) 96 well MAXISorp plates (NUNC) were coated over night with 2 ug/ml streptavidin in PBS at room temperature, washed 4× and blocked for 1 h at 37° C. in 2% BSA containing blocking buffer. Refolded HLA-A*02:01/MLA-001 monomers served as standards, covering the range of 15-500 ng/ml. Peptide-MHC monomers of the UV-exchange reaction were diluted 100-fold in blocking buffer. Samples were incubated for 1 h at 37° C., washed four times, incubated with 2 ug/ml HRP conjugated anti-β2m for 1 h at 37° C., washed again and detected with TMB solution that is stopped with […]. Absorption was measured at 450 nm. Candidate peptides that show a high exchange yield (preferably higher than 50%, most preferred higher than 75%) are generally preferred for a generation and production of antibodies or fragments thereof, and/or T cell receptors or fragments thereof, as they show sufficient avidity to the MHC molecules and prevent dissociation of the MHC complexes.
(In general: ELISA stands for enzyme-linked immunosorbent assay.)
RMPPPLPTR had a peptide exchange yield of 20 to 50%.

On to ATMQSKLIQK, for which the peptide exchange yield lay within 50 to 75%.

For the molecule IIAKKYFFK, the peptide exchange yield was 20 to 50%. Consider STQDTLLIK, for which the peptide exchange yield lay in the range of 20 to 50%.

Molecule GVIIAKKYFFK returned a peptide exchange yield of 20 to 50%.

For the molecule GSAALYLLR, the peptide exchange yield is 20 to 50%. Consider KLYPTYSTK, for which the peptide exchange yield is 20 to 50%. ALLGVIIAK showed a peptide exchange yield of 20 to 50%. FSLAGALNAGFK displayed a peptide exchange yield of 20 to 50%.

For the next experiment, the target named is T2, HLA-B*44:02 (human).
T2 construct: Peptide-receptive MHC monomer made by UV cleavage of a UV-sensitive peptide
The description is as above.
Text: as §1, §2
With AEAVLKTLQEL, the peptide exchange yield was in the range of 50 to 75%. In the case of FELPTGAGL, the peptide exchange yield lay in the range of 20 to 50%.

Molecule KESQLPTVM yielded a peptide exchange yield of 20 to 50%. The molecule GEHTSKATL had a peptide exchange yield of 20 to 50%. For YEVDTVLRY, the peptide exchange yield lay in the range of 20 to 50%. In turn, DESEKTTKSF gave a peptide exchange yield of 20 to 50%. The same measure, in the same setting: to KENFAGEATL belongs 20 to 50%.

Molecule DEYLIPQQGF showed a peptide exchange yield of 50 to 75%. On the same count and under the same terms, to TEVLDSHIHAY belongs 20 to 50%; to AEKDGKLTDY, 20 to 50%. Consider ARLTPIPFGL, for which the peptide exchange yield lay within 10 to 20%.

The molecule TEKEMIQKL yielded a peptide exchange yield of 20 to 50%. Regarding KEFNLQNMGL, the peptide exchange yield fell in the range of 50 to 75%. On to EEESLLTSF, for which the peptide exchange yield fell in the range of 50 to 75%. The same measure, in the same setting: to AEERAEAKKKF belongs 20 to 50%; to SEVPVARVW, above 75%; to TEATMTFKY, 50 to 75%.

As for GEATLQRIY, the peptide exchange yield was 10 to 20%. On the same count and under the same terms, in the case of SENIVIQVY it was 20 to 50%. LQEEKVPAIY: the peptide exchange yield was 10 to 20%. Molecule EEVDVPIKLY yielded a peptide exchange yield of 20 to 50%. Molecule KESDGFHRF gave a peptide exchange yield of 50 to 75%. The molecule EEFETLKEF came in with a peptide exchange yield of 20 to 50%. Still for that read-out and setting: in the case of EEAKQVLFL it was 20 to 50%; in that of SENPETITY, 50 to 75%. Regarding AEIHTAEI, the peptide exchange yield was 20 to 50%. The molecule AEQTGTWKL yielded a peptide exchange yield of 20 to 50%. The same measure, in the same setting: in the case of HELENHSMY it was 20 to 50%; in that of NEINEKIAPSF, 50 to 75%. Molecule TEHTQSQAAW came in with a peptide exchange yield of 50 to 75%. As to GEELGFASL, the peptide exchange yield lay in the range of 20 to 50%. On to EEAPLVTKAF, for which the peptide exchange yield was 20 to 50%. The same measure, in the same setting: in the case of KEITGFLLI it was 50 to 75%. In turn, SEPINIIDAL came in with a peptide exchange yield of 20 to 50%. With SESAVFHGF, the peptide exchange yield is 50 to 75%. Still for that read-out and setting: to IEALLESSL belongs 20 to 50%; to EEKLIIQDF, 20 to 50%; to AEETCAPSV, 20 to 50%.

Take AEKQTPDGRKY: the peptide exchange yield was in the range of 20 to 50%. In turn, REAEPIPKM yielded a peptide exchange yield of 20 to 50%.

Consider AEHDAVRNAL, for which the peptide exchange yield fell in the range of 50 to 75%.

TTMDQKSLW returned a peptide exchange yield of 10 to 20%. For the molecule AEQPDGLIL, the peptide exchange yield was 20 to 50%.

EELLHGQLF had a peptide exchange yield of 20 to 50%.

For the molecule SEAFPSRAL, the peptide exchange yield lay in the range of 50 to 75%.

MELLLVNKL showed a peptide exchange yield of 50 to 75%. LEMPHYSTF yielded a peptide exchange yield above 75%.

In turn, NEISTFHNL displayed a peptide exchange yield of 50 to 75%. Same read-out and setting: to QEVLLQTFL belongs above 75%. Turning to AENLFRAFL, the peptide exchange yield lay in the range of 50 to 75%. On to AENAEYLRV, for which the peptide exchange yield was in the range of 20 to 50%.
